US20190055322A1

B1: Nanobody 260 (1E11-40GS-2B10) (VHH)
chain: EVQLVESGGGLVQPGGSLRLSCAASGSTRSVNPMAWFRQAPGRQREWVATISRSGYATYADSVKGRFTISGDNAKSSVYLQMNSLKPEDTAVYYCVTGTYWGQGTLVTVSSGGGGSGGGGSGGGGSGGGGSGGGGSGGGGSGGGGSGGGGSEVQLVESGGGLVQPGGSLRLSCAASGSIFSINNMGWYRQAPGKQRELVTVVTSNLITTYADSVKGRFTISRDNAKNTVYLQMNSLKPEDTAVYYCNAWARSVGSVPYSQFWGQGTLVTVSS
B2: Nanobody 264 (1E11-40GS-2B02) (VHH)
chain: EVQLVESGGGLVQPGGSLRLSCAASGSTRSVNPMAWFRQAPGRQREWVATISRSGYATYADSVKGRFTISGDNAKSSVYLQMNSLKPEDTAVYYCVTGTYWGQGTLVTVSSGGGGSGGGGSGGGGSGGGGSGGGGSGGGGSGGGGSGGGGSEVQLVESGGGLVQPGDSLRLSCAASGRILSINNMVWYRQAPGKQRELVAHITSSGSTGYADSVKGRFTISRDNAKNTFYLQMTNLNPEDTAVYYCNCWVSSDSNAPLKNYWGQGTLVTVSS
B3: Fab 26.24 (Fab, V domains shown)
VH: EVQLVESGGGVVQPGRSLRLSCAASGFTFSNYPMHWVRQAPGKGLEWVAVISYDGSEKWYADSVKGRFTISRDNSKNTLYLEMNSLRPEDTAVYYCARNRGDIYYDFTYAMDIWGQGTTVTVSS
VL: DIQLTQSPSTLSASVGDSVTITCRASEGVDRWLAWYQQKPGRAPKLLIYDASTLQSGVPSRFSGSGSGTEFSLTISSLQPDDVATYYCQHFWGTPYTFGQGTKLEIKR
B4: Nanobody 234 (7C10-40GS-5H01) (VHH)
chain: EVQLVESGGGLVQAGGSLRLSCTASGRTLSSYTMGWFRQAPGTEREFVAAMTRSGFNTYYADSVKGRFTISRDSTENTMALQMSSLKPEDTAVYYCTAGRGLTSYRADYWGQGTLVTVSSGGGGSGGGGSGGGGSGGGGSGGGGSGGGGSGGGGSGGGGSEVQLVESGGGLVQPGGSLRLSCAASGSTLDYYAIGWFRQAPGKEREGVSCTSNSGSTYYGGSVKGRFTASRDNAKNTVYLQMNSLRPEDTAVYYCVATIGCATLGGTLDVQRYYYRGQGTLVTVSS
B5: Nanobody 302 (5H01-40GS-7C10) (VHH)
chain: EVQLVESGGGLVQPGGSLRLSCAASGSTLDYYAIGWFRQAPGKEREGVSCTSNSGSTYYGGSVKGRFTASRDNAKNTVYLQMNSLRPEDTAVYYCVATIGCATLGGTLDVQRYYYRGQGTLVTVSSGGGGSGGGGSGGGGSGGGGSGGGGSGGGGSGGGGSGGGGSEVQLVESGGGLVQAGGSLRLSCTASGRTLSSYTMGWFRQAPGTEREFVAAMTRSGFNTYYADSVKGRFTISRDSTENTMALQMSSLKPEDTAVYYCTAGRGLTSYRADYWGQGTLVTVSS
B6: Nanobody 308 (6B05-40GS-1E11) (VHH)
chain: EVQLVESGGGLVQPGGSLRLSCAASGSIFSINTMGWYRQAPGKQRELVSTITSNLVPHYADSVQGRFTISRDNARNTVYLQMNSLKPQDTAHYYCNAWARSSGATPYTNYWGQGTLVTVSSGGGGSGGGGSGGGGSGGGGSGGGGSGGGGSGGGGSGGGGSEVQLVESGGGLVQPGGSLRLSCAASGSTRSVNPMAWFRQAPGRQREWVATISRSGYATYADSVKGRFTISGDNAKSSVYLQMNSLKPEDTAVYYCVTGTYWGQGTLVTVSS
B7: Nanobody 083 (7C10-40GS-11B09) (VHH)
chain: EVQLVESGGGLVQAGGSLRLSCTASGRTLSSYTMGWFRQAPGTEREFVAAMTRSGFNTYYADSVKGRFTISRDSTENTMALQMSSLKPEDTAVYYCTAGRGLTSYRADYWGQGTLVTVSSGGGGSGGGGSGGGGSGGGGSGGGGSGGGGSGGGGSGGGGSEVQLVESGGGLVQAGGSLRLSCAASRLTFNHYNMGWFRQAPGKERERVAEVTWSGDKIYYVDSVKGRFTISRDNTPNPVYLYLQMNSLKPEDTAVYYCATAPRGLPYANGYWGQGTLVTVSS
B8: Nanobody 258 (13F07-40GS-14E10) (VHH)
chain: EVQLVESGGGLVQAGGSLRLSCAASGNTFSTNPMYWYRQAEGKQRELVASISSRGITNYADSVRGRFSISRDNTKDTVYLQMNSLKPEDTAVYYCRLASLSSGTVYWGKGTLVTVSSGGGGSGGGGSGGGGSGGGGSGGGGSGGGGSGGGGSGGGGSEVQLVESGGGLVQPGGSLRLSCAASGRIFSINTMGWYRQAPGKQRELVAGVTINAITNYADSVKGRFTISRDNAKNTVWLQMNSLKPEDTAVYYCHAWARSSGSAPYSQNWGQGTLVTVSS
B9: Nanobody 272 (11B09-40GS-10C05) (VHH)
chain: EVQLVESGGGLVQAGGSLRLSCAASRLTFNHYNMGWFRQAPGKERERVAEVTWSGDKIYYVDSVKGRFTISRDNTPNPVYLYLQMNSLKPEDTAVYYCATAPRGLPYANGYWGQGTLVTVSSGGGGSGGGGSGGGGSGGGGSGGGGSGGGGSGGGGSGGGGSEVQLVESGGGLVQPGGSLRLSCAASGSIFSINTMGWYRQAPGKQRDLVASITMNQVPNYADSVQGRFTISRDNVRNTVHLQMNAVKPEDTADYFCNAWVRSSGASPYTNYWGQGTLVTVSS
B10: Nanobody 283 (7E09-40GS-6B05) (VHH)
chain: EVQLVESGGGLVQAGGSLRLSCAASGRTFSSYIMGWFRQAPGKAREFVADITWGQRPYYADSVKGRFTISRDNAKNTVYLEMNSLKPEDTAVYYCAADLGVVIREEHAYWGQGTLVTVSSGGGGSGGGGSGGGGSGGGGSGGGGSGGGGSGGGGSGGGGSEVQLVESGGGLVQPGGSLRLSCAASGSIFSINTMGWYRQAPGKQRELVSTITSNLVPHYADSVQGRFTISRDNARNTVYLQMNSLKPQDTAHYYCNAWARSSGATPYTNYWGQGTLVTVSS
B11: Nanobody 087 (1E11-40GS-7C10) (VHH)
chain: EVQLVESGGGLVQPGGSLRLSCAASGSTRSVNPMAWFRQAPGRQREWVATISRSGYATYADSVKGRFTISGDNAKSSVYLQMNSLKPEDTAVYYCVTGTYWGQGTLVTVSSGGGGSGGGGSGGGGSGGGGSGGGGSGGGGSGGGGSGGGGSEVQLVESGGGLVQAGGSLRLSCTASGRTLSSYTMGWFRQAPGTEREFVAAMTRSGFNTYYADSVKGRFTISRDSTENTMALQMSSLKPEDTAVYYCTAGRGLTSYRADYWGQGTLVTVSS
B12: Nanobody 269 (6B05-40GS-13F07) (VHH)
chain: EVQLVESGGGLVQPGGSLRLSCAASGSIFSINTMGWYRQAPGKQRELVSTITSNLVPHYADSVQGRFTISRDNARNTVYLQMNSLKPQDTAHYYCNAWARSSGATPYTNYWGQGTLVTVSSGGGGSGGGGSGGGGSGGGGSGGGGSGGGGSGGGGSGGGGSEVQLVESGGGLVQAGGSLRLSCAASGNTFSTNPMYWYRQAEGKQRELVASISSRGITNYADSVRGRFSISRDNTKDTVYLQMNSLKPEDTAVYYCRLASLSSGTVYWGKGTLVTVSS

Target: PcrV of P. aeruginosa strain PA103 (on TTSS-induced bacteria) (Pseudomonas aeruginosa strain PA103)
Assay: cell-based or functional assay

Compared with B1, B2 is lower in % inhibition in P3X63 cytotoxicity assay, extract 1/150: 57% for the first, 47% for the second.

Going from B4 to B5, the % inhibition in P3X63 cytotoxicity assay, extract 1/150 rises from 63% to 68%.

First: B6
Second: B7
The % inhibition in P3X63 cytotoxicity assay, extract 1/150 of the first is lower: 57% for the first, 61% for the second.

Going from B8 to B9, the % inhibition in P3X63 cytotoxicity assay, extract 1/150 falls from 69% to 66%.

Compared with B10, B11 is higher in % inhibition in P3X63 cytotoxicity assay, extract 1/150: 45% for the first, 49% for the second.

With B12 the % inhibition in P3X63 cytotoxicity assay, extract 1/150 was 41%.

With B3 the % inhibition, P3X63 cytotoxicity assay, MOI 1.5 was 100%.

For B3, the % inhibition, P3X63 cytotoxicity assay, MOI 4 was 100%.

B3 showed an IC50 (nM), P3X63 cytotoxicity assay, MOI 1.5 of 34 nM.

B3 gave an IC50 (nM), P3X63 cytotoxicity assay, MOI 4 of 48 nM.

B6 and B8 are the same in Efficacy (%), P3X63 cytotoxicity, MOI 12: 100% for the first, 100% for the second.

B10 and B12 are the same in Efficacy (%), P3X63 cytotoxicity, MOI 12: 100% for the first, 100% for the second.

First: B6
Second: B8
The IC50 value (M), P3X63 cytotoxicity, MOI 12 of the first is 2-fold higher: 1.8e-10 M for the first, 9e-11 M for the second.

Compared with B10, B12 is 11-fold higher in IC50 value (M), P3X63 cytotoxicity, MOI 12: 7.6e-11 M for the first, 8.2e-10 M for the second.

Going from B6 to B8, the Ratio (IC50 Fab 13.37/IC50 Nanobody), A549 cytotoxicity rises from 0.3 fold to 1 fold.

B10 and B12 are the same in Ratio (IC50 Fab 13.37/IC50 Nanobody), A549 cytotoxicity: 1 fold for the first, 1 fold for the second.
